Laboratory results taken from the nanobody polyreactivity screen of Harvey et al. (2022).

Assay: yeast display, Sf9 membrane polyspecificity reagent, FACS + sequencing; frameworks hold sequencing errors
Outline: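 Galactose induction of a Saccharomyces cerevisiae BJ5465 synthetic nanobody display library ran 36–48 hours. The cells were then stained for 1 hour at 4 °C with 10% biotinylated, detergent-solubilized Sf9 membrane reagent, pulled down on streptavidin microbeads and FACS-sorted into low and high (top ~1%) gates on expression and reagent-binding fluorescence. Labels for polyreactivity follow the gate of origin.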

Sequence	polyreactivity (PSR sort gate)
QVQLVESGGGLVQAGGSLRLSCAASGSIFLPYAMGWYRQAPGKERELVAAITRRGTSTYYADSVKGRFTISRDNAKNTVYLQMNSLKPEDTAVYYCAAEIKYWYSAYAYGYWGQGTQVTVSS	high polyreactivity
QVQLVESGGGLVQAGGSLRLICAASGSTFTTYAMGWYRQAPGKEREFVAGISWSGGSTRYADSVKGRFTISRDNAKNTVYLQMNSLKPEDTAVYYCAAGRKRDSKYYYWGQGTQVTVSS	high polyreactivity
QVHLVESGGGLVQAGGSLRLSCAASGLTFLYNTMGWYRQAPGKEREFVAAITISGGTTYYADSVKGRFTISRDNAKNTVYLQMNSLKREDTAVYYCAADYNSTERGTNMDYWGQGTQVTVSS	low polyreactivity
QVQLVESGGGLVQAGGSLRLSCAASGIIFLSYAMGWYRQAPGKERELVAAIRSRGDSTYYADSVKGRFTISRDNAKNTVYLQMNSLKAEDTAVYYCNARQRRYPYGYWGQGTQVTVSS	high polyreactivity
QVQLVESGVGLVQAGGSLRLSCASSGRTFTPNGMGWYRQAPGKERELVAAITYGGGITDYADSVKGRFTISRDNAKNTVYLQMNRLNPEDTAVYYCAATTLSFEGGKYWSKYDYWGQGTQVTVSS	low polyreactivity
QVQLVESGGGLVQAGGSLRLSCAASRLTFVGYAMGWYRQAPGKETALVAALTSSGGGTYYADSVKGRFTISRDNAKNPVYLQMNSLKPQDTALYYCAKVTRGSQYDYWGQGTEVTVSS	low polyreactivity
QVQLVESGGGLVQAGGSLRLSCAASGRIFVYYAMGWYRQAPGKEMELVASISYSGASTYYADSVKGRFTISRDNAKNTVYLQMNSLKPEDTAVYYCNTDGDDFFHVIYDYWGQGTQVTVSS	low polyreactivity
QVQLVESGGGLVQAGGSLRLSCAASGRTFYSNAMGWYRPAPGKERELVAAITFGGGSTYYADSVKGRFTISRDNAKNTVYVQMNSLKPEDTAVYYCAAEGYKYRFYYWGQGTQVTVSS	low polyreactivity
QVQLVESGGGLVQAGGSLRLSCAASGLIFYGNAMGWYRQAPGKERELVADITGSSVRTYSADSVKGRFTISRDNAKNTVYVQMNSLNRKIPRSITALNVSCTSVVVGYDYWGQGTQVTVSS	low polyreactivity
QVQLVESGGGLVQAGGSLRLSCAASGSTFDRNAMGWYRPAPGKERELVAAISWTGTSTRYADSVKGRFTISRDNAKNTVYLHMNSLKPEDTAGYYCAARGYSYYQRLYYWGQGTQVTVSS	high polyreactivity
QVQLVESGGGLVQAGGSLRLSCAASGSTFYLNTMGWYRQAPGKERELVASISRSGGTTYYADSVKGRFTISRDNAKNTVYLQMNSLKPEDTAVYYCAKRYYFTHAYSRTFYYWGQGTQVTVSS	high polyreactivity
QVQLVESGGGIVQAGGSLRVSCAASGRTFYSSAMGWYRQAPGKERELVAAISWNGGSTYYADSVKGRFTISRDNAKNTVYLQMNSLNPEDTAVYYCAATYLLRGDAYYSWGQGTQVTVSS	high polyreactivity
QVQLVESGGGLVQAGGSLRLSCAASGSIFVGYAMGWYRQARGKERELVAAITGSGTRTYYADSVKGRFTISRDNAKNTVYLQMNSLKPEDTAVYYCAAVTYHGNPSEYYPDTVGFYYWGQGTQVTVSS	low polyreactivity
QVQLVESGGGLVQAGGSLRLSCAASGFTIGYNVMGWYRQAPGKERELVATISWNGARTYYADSVKGRFTISRDNAKNTVYLQMNSLKPEDTAVYYCAARRYYRGEYDYWGQGTQVTVSS	low polyreactivity
QVQLVESGGGLVQAGCSLRLSCAASGRSIAYNAMGWYRQAPGTERELVAAISWSGGSTYYADSVKGRFTISRDNAKNTVYLQMNSLIPEDTAVYYCAKRFAQYRYPYDYWGQGKQVTVSS	high polyreactivity
QVQLVESGGGLVQAGGSLRLSCAASGRITFSHNTMGWYRQAPGKERELVAAISSGGRTNYADSVKGRFTISRDNAKNTVYLQMNSLKPEDTGVYYCARESHYDFIYDGMDYWGQGTQVTVSS	low polyreactivity
QVQLVESGGGLVQAGGSLRLICAASGRTFADYAMGWYRQAPGKERELVAAISWRGGSTYYADSVKGRFTISRDNAKITVYLQMNSLKPEDTAVYYSNKAYPAHYDYLGQGTQVTVSS	low polyreactivity
QVQLVESGGGLVQAGGSLRLSCAASGFIFYPYAMGWYRQAPGKERELVASIYSGGRTYYADSVKGRFTISRDNAKNTVYLQMNSLKPEDTAVYYCNARSRYFGYDYWGQGTQVTVSS	high polyreactivity
QVQLVESGGGLVQAGGSLRLSCAASVNTFWYYTMGWYRQAPGKERELVAAITGGGRTYYADSVKGRFTISRDNAKNSVYLQMNSLKPEDTAVYYCAKPWGSDFGSWGQGTQVTVSS	low polyreactivity
QVQLVESGGGLVQAGGSLRLSCAASGSIFGIYTMGWYRQAPGKERELVAAINSGGSTNYADSVKGRFTISRDNAKNTVYLQMNSLKPEDTAVYYCNAYIHPPGPRVYSREYDYWGHGTQVTVSS	low polyreactivity
QVQLVESGVGLVQAGGSLRLSCAASGSIFDKNAMGWDRPAPGKERELVAAISRSGGSTYYADSVKGRFTISRDNAKNTVYLQMNSLKPEDTAVYYCNKYTNGRNFDYWGQGTQVTVSS	high polyreactivity
QVQQHESGGGLVQAGGSLRLTCAASGTISESGLMGWYRQAPGKERELVAGISSGGITNYADSVKGRFTISRDIAINTVYLQMNSPKPEDTAEYWGQGSQVTVSS	low polyreactivity

Sequence	polyreactivity (PSR sort gate)
QVQLVESGGVLVQAGGSLRLSCADSGSIFILYAMGWYRHAPGKESEFVAAITYRGGSTKYADSVKGRFTISRDNAKNTVYLQMNRLKPEDTAVYYCAAGGYWRSPCGSVSRYGYWGQGTQVTVSS	high polyreactivity
QVQLVESGGGLVQAGGSLRLSCAASGSIFGYYAMGWYRQAPGKERELVASISGSGGTTYYADSVKGRFTISRDNAKNTVYLQMNSLKPEDTAVYYCAARRSIYGYPFVTSRRGYWGQGTQVTVSS	high polyreactivity
QVQLVESGGGLVQAGGSLRLSCAASGGIFRSYAMGWYRQAPGKERELVAAINYSGGSTYYADSVKGRFTISRDNAKNSVYLQMNSLKPEDTAVYYCASDGYIRQYVTYYYWGQGTQVTVSS	low polyreactivity
QVQLVESGGGLVQAGGSLRLSCAASGITFDSNTKGWYRPAPGKEREFVATISYSGGSTYYADSVKGRFTISRDNAKNTVYFQMNSLKPEDTAVYYCHADYYGGPTMQYGYLWYDYWGEGTQVTVSS	low polyreactivity
QVQLVESAGGLVQAGGILRLSCAASGITIYRYAMGWYRQAPGKERELVADISSGGGTTYYADSVKGRFTISRYNAKNTVYLQMNSQKPEDTAVYYCAADYGFRYPLYDYWGQGTQVTVSS	low polyreactivity
QVQLVESGGALVQAGGRLRLSCAASGSTFTYNAMGWYRQAPGKERELVASISSGTTTYYADSVKGRFTISRDNAKNTVSLQMNSLKPEDTAVYDCAVDSWSRVQGWLAHNYDYWGQGTQVTVSS	low polyreactivity
QVQLVESGGGLVQAGGSLRLSCAASGSIIYAYAMGWYRQAPGKERELVAGIRDGGSTYYADSVKCRFTISRDNAKNTVYLQMNSLKPEDTAVYYCAAGPRIRDDYWGQGTQVTVSS	low polyreactivity
QVQLVESGGVLFQAGGSLRLSCAAAGFTFKYNAMGWYRQAPGKERELVASITSGATNYADSVKGRFTIARDNAKNTVSLQLTTLKPEETAVYDCAVVDVHYTRAKVGYAYGAYDYWGQCTQVTVSS	low polyreactivity
QVQLVESGGGLVQAGGSLRLSCAASGRIFGRNTMGWYRQAPGKERELVASITFGGVSTYYADSVKGRFTISRDNAKNTVYLQMNSLKPEDTAVYYCAAVLINYEGYDSWGQGTQVTVSS	low polyreactivity
QVQLVESGGGLVQAGGSLRLSCAASGITFDGNAMGWYRQAPGKERELVAGISGSGGGTYYADSVKGRFTISRDNAKNTVYLQMNSLKPEDTAVYYCAADTSTSHAYDYWGQGTQVTVSS	low polyreactivity
QVQLVESGGGLVQAGGSLRLSCAASGSTFVIYAMGWYRQAPGKERELVAAISGRTGSTYYADSVKGRFTISRDNAKNTVYLQMNSLKPEDTAVYYCAAYKRSGLKYGHWGQGTQVTVSS	high polyreactivity
QVQLVESGGGLVQAGGSLRLSCAASGSIFLYYAMGWYRPAPGKDRELVAAIRRGGNTNYADSVKGRFTISRDNAKNTVYLQMNSLKPVDTAVYYCAAAQYSRYSRVPNYYAGTYYYWGQGTQVTVSS	low polyreactivity
QVQLVESGGGLVQAGGSLRLSCAASGRTFVYNAMGWYRQAPGKERELVAAIDWSGGSTYYADSVKGRFTISRDNAKNTVYLQMNSLKPEDTAVYYCAADYYYPSQMDYWGQGTQVTVSS	low polyreactivity
QLQLVESGRGLVQAGGSLRLSCAASGLIFGNYAKRSYRQPPGKESELVAAITSTGITYYADSVKGRFTISRDNAKNTVYLQMTSLKPEDTAVYYCAAASRFHPDRGGYWGQGTQVTVSS	low polyreactivity
QVQLVESGGGLVQAGGSLRLSCAASGFTFGSNAMGWYRQAPGKERELVAAISWSGGRTYYADSVKGRFTISRDNAKNTVYLQMNILKPEDTAVFYCNKQYVKPWYRGYYYWGQGTQVTVSS	high polyreactivity
QVQLVESGGGLVQAGGSLRLSCAASGSTFAGYAMGWYRQAPGKERELVAAISKSGGSTYYADSVKGRFTISRDNAKNTVYLQMNSLKPEDTAVYYCAARGGLPDGQGYYYWGQGTQVTVSS	high polyreactivity
QVQHEETGGGLVQAGGSLRLSCAASGSTYRKNSMGWYRPAPGKERAFVAAISRSGGSTYYADSVKGRFTISRDNAKNTVYLQMNSLKPEDTAVYYCAASYYQHQYSYELGDYWGQGTQVTVSS	low polyreactivity
QVQLVESGGGLVQAGGSLSLSCAASGSIFESNAMGLYRQAPGKERELVAAYADSVKGRFTISRDNAKNTVYLQMNSLKPEDTAVYYCAKSLSLYVVPLYEYWGQGTQVTVSS	low polyreactivity
QVQLVESGGGLVQAGGSLRLSCAASGSTFRHNAMGWYRQAPGKERELVAAITRSGGRTFYADSVKGRFTISRDNAKNTVYLQMNSLKPEDTAVYYCWGLGTQVTVSS	low polyreactivity
QVQLVESGGGLVQAGGSLRLSCAASGSTFYLYPMGWLRQAPGKERELVAAIRQSGGSTYYADSVKGRFTISRDNAKNTVYLQMNSLKPEDTAVYYCAARPSYRLGQRYYYWGQGTQVTVSS	high polyreactivity
QVQLVESGGGLVQAGGSLRLSCAASGSTFGYYAMGWYRQAPGKERELVAAISDGGSTYYADSVKGRFTISRDNAKNTVYLQMNSLKPEDTAVYYCAAEYLAYDWYEYYYWGQGTQVTVSS	high polyreactivity
